One may read the EC50 as the midpoint of the concentration-response curve. Higher therefore signals a need for much substance.

This note sets out measurements from patent publication EP4711384A1 (WIO Bioscience Co., Ltd., dated 2026).

Where a chain is given by its changes, count along the chain named. Where “and” joins values, the source holds several entries; their conditions need not be identical. Identical values can stand only once.

First the molecules themselves.
B1: hzWio-02-05-His (bispecific antibody)
chain: EVQLVESGGGLVQPGGSLRLSCAASGNLYRDPCMGWFRQAPGKDREGVAAMNTGADSTFYARSVKGRFTISRDNAKNTLYLQMNSLRAEDTAVYYCAASRYCTERTYTWRYDYDYWGQGTLVTVSSGGGGSEVQLVESGGGLVQPGGSLRLSCAASGFTYIPAYMGWFRQAPGKERERVASISSTEGSTTYADSVKGRFTISQDNSKNTLYLQMNSLRPEDTAVYYCAAYQFGAFRVWGQGTLVTVSSHHHHHH
B2: hzWio-02-03-His (bispecific antibody)
chain: EVQLVESGGGLVQPGGSLRLSCAASGNLYRDPCMGWFRQAPGKDREGVAAMNTGADSTFYARSVKGRFTISRDNAKNTLYLQMNSLRAEDTAVYYCAASRYCTERTYTWRYDYDYWGQGTLVTVSSGGGGSEVQLVESGGGLVQPGGSLRLSCAASGFTYIPAYMGWFRQAPGKERERVASIKTDASTTYADSVEGRFTISQDNAKNTLYLQMNSLRPEDTAVYYCAAYQFGAFRVWGQGTLVTVSSHHHHHH
B3: hzWio-02-11-His (bispecific antibody)
chain: EVQLVESGGGLVQPGGSLRLSCAASGSTFDEYDMGWYRQAPGGKCELVSTISTIDASTYYADSVKGRFTISRDNSKNTLYLQMNSLRAEDTAVYYCEADDRGTWDRGGCWGQGTLVTVSSGGGGSEVQLVESGGGLVQPGGSLRLSCAASGFTYIPAYMGWFRQAPGKERERVASISSTEGSTTYADSVKGRFTISQDNSKNTLYLQMNSLRPEDTAVYYCAAYQFGAFRVWGQGTLVTVSSHHHHHH
B4: hzWio-02-30 (His form) (bispecific antibody)
chain: EVQLVESGGGLVQPGGSLRLSCAASGFTYIPAYMGWFRQAPGKERERVASISSTEGSTTYADSVKGRFTISQDNSKNTLYLQMNSLRPEDTAVYYCAAYQFGAFRVWGQGTLVTVSSGGGGSEVQLVESGGGLVQPGGSLRLSCAASGSTFDEYDMGWYRQAPGGKCELVSTISTIDASTYYADSVKGRFTISRDNSKNTLYLQMNSLRAEDTAVYYCEADDRGTWDRGGCWGQGTLVTVSSHHHHHH
B5: hzWio-02-23-His (bispecific antibody)
chain: EVQLVESGGGLVQPGGSLRLSCAASGFTVHDMGWYRQAPGKECELVSTISSDASTYYADSVKGRFTISRDNAKNTLYLQMNSLRAEDTAVYYCAADSFTGLQLAECKADFGYWGQGTLVTVSSGGGGSEVQLVESGGGLVQPGGSLRLSCAASGFTYIPAYMGWFRQAPGKERERVASISSTEGSTTYADSVKGRFTISQDNSKNTLYLQMNSLRPEDTAVYYCAAYQFGAFRVWGQGTLVTVSSHHHHHH
B6: hzWio-02-44 (His form) (bispecific antibody)
chain: EVQLLESGGGLVQPGGSLRLSCAASGYTYGPYCMGWFRQAPGKEREGVAAVGGDARTWYGNSVKGRFTISRDNSKNTLYLQMNSLRAEDTAVYYCAADFDRTVCSDDIYDYTYRGQGTLVTVSSGGGGSQVQLQESGGGSVQAGGSLRLSCVASGTTMSMNYMAWFRQAPGKEREGVASIFRSTHYADSVKGRFTIAEDSAKNTVYLQMNSLKPEDTAVYYCAAGRTKPYLTPLAESQYNYWGQGIQVTVSSHHHHHH
B7: hzWio-02-01-His (bispecific antibody)
chain: EVQLVESGGGLVQPGGSLRLSCAASGTAYDNACMGWFRQAPGKEREGVASIHLRDRTYYADSVKGRFTISRDNSKNTLYLQMNSLRAEDTAVYYCASSNICNALNLQGNTYWGQGTLVTVSSGGGGSEVQLLESGGGLVQPGGSLRLSCAASGYTYGPYCMGWFRQAPGKEREGVAAVGGDARTWYGNSVKGRFTISRDNSKNTLYLQMNSLRAEDTAVYYCAADFDRTVCSDDIYDYTYRGQGTLVTVSSHHHHHH
B8: hzWio-02-29 (His form) (bispecific antibody)
chain: EVQLLESGGGLVQPGGSLRLSCAASGYTYGPYCMGWFRQAPGKEREGVAAVGGDARTWYGNSVKGRFTISRDNSKNTLYLQMNSLRAEDTAVYYCAADFDRTVCSDDIYDYTYRGQGTLVTVSSGGGGSEVQLVESGGGLVQPGGSLRLSCAASGTAYDNACMGWFRQAPGKEREGVASIHLRDRTYYADSVKGRFTISRDNSKNTLYLQMNSLRAEDTAVYYCASSNICNALNLQGNTYWGQGTLVTVSSHHHHHH
B9: hzWio-02-31 (His form) (bispecific antibody)
chain: EVQLVESGGGLVQPGGSLRLSCAASGFTYIPAYMGWFRQAPGKERERVASISSTEGSTTYADSVKGRFTISQDNSKNTLYLQMNSLRPEDTAVYYCAAYQFGAFRVWGQGTLVTVSSGGGGSEVQLVESGGGLVQPGGSLRLSCAASGFTVHDMGWYRQAPGKECELVSTISSDASTYYADSVKGRFTISRDNAKNTLYLQMNSLRAEDTAVYYCAADSFTGLQLAECKADFGYWGQGTLVTVSSHHHHHH
B10: hzWio-02-09 (His form) (bispecific antibody)
chain: EVQLVESGGGLVQPGGSLRLSCAASGSTFDEYDMGWYRQAPGGKCELVSTISTIDASTYYADSVKGRFTISRDNSKNTLYLQMNSLRAEDTAVYYCEADDRGTWDRGGCWGQGTLVTVSSGGGGSEVQLVESGGGLVQPGGSLRLSCAASGFTYIPAYMGWFRQAPGKERERVASIKTDASTTYADSVEGRFTISQDNAKNTLYLQMNSLRPEDTAVYYCAAYQFGAFRVWGQGTLVTVSSHHHHHH
B11: hzWio-02-01-Hm30 (bispecific antibody)
chain: B7 chain with N105H
B12: hzWio-02-01-Hm33 (bispecific antibody)
chain: B7 chain with G108H
B13: hzWio-02-01-Hm29 (bispecific antibody)
chain: B7 chain with L104H
B14: hzWio-02-01-Hm35 (bispecific antibody)
chain: B7 chain with T110H
B15: hzWio-02-01-Hm34 (bispecific antibody)
chain: B7 chain with N109H
B16: hzWio-02-01-Hm32 (bispecific antibody)
chain: B7 chain with Q107H
B17: hzWio-02-01-Hm31 (bispecific antibody)
chain: B7 chain with L106H

One assay addresses T1, human IL-18R1 and IL-18RAP on IL-18 Reporter HEK 293 Cells (human, UniProt Q13478 19-541; O95256 20-599).
T1 sequence (looked up) 1: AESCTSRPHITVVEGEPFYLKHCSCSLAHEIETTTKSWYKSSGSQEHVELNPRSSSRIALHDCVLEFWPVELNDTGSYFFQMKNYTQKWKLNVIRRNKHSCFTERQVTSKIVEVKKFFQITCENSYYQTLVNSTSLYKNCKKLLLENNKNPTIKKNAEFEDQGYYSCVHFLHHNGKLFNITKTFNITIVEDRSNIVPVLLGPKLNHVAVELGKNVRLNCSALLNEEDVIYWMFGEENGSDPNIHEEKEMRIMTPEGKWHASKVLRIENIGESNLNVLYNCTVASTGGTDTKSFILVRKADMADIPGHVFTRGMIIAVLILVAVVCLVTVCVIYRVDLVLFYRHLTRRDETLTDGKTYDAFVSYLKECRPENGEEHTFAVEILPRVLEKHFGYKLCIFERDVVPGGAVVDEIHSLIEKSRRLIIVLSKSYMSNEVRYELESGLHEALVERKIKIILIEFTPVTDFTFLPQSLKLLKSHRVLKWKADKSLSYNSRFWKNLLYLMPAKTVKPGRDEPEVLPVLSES
T1 sequence (looked up) 2: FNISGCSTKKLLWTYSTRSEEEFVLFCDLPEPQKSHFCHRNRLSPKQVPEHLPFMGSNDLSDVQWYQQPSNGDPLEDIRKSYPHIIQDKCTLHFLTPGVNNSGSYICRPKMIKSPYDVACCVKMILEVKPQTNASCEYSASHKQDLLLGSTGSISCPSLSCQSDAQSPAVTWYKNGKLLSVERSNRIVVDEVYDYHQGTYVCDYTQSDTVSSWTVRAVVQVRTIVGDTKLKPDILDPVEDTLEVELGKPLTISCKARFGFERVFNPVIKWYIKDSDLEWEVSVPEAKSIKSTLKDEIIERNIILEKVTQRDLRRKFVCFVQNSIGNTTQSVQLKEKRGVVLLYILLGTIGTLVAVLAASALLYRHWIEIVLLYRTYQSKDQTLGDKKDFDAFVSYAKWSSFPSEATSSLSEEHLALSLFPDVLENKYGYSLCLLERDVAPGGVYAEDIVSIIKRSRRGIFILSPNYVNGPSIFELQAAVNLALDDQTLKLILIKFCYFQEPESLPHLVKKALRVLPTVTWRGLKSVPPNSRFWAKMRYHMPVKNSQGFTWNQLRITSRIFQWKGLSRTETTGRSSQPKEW
Description: cell-based or functional assay.
Take B1: the EC50 amounted to 0.201 ng/mL and the Top630nm came to 1.72.
B2 gave an EC50 of 0.394 ng/mL and a Top630nm of 1.82.
B3 displayed an EC50 of 0.101 ng/mL and a Top630nm of 1.58.
For B4, a half-maximal effect (EC50) was put at 2.74 ng/mL and the Top630nm turned out to be 0.837.
As for B5, the response was half-maximal at 0.13 ng/mL (EC50) and the Top630nm is 1.95.
The matching figures for B6: 2.66 ng/mL and 0.912.
The molecule B7 yielded an EC50 of 0.417 ng/mL and a Top630nm of 1.93.
In turn, B8 came in with an EC50 of 0.503 ng/mL and a Top630nm of 1.61.
The matching figures for B9: 2.58 ng/mL and 0.779.
Molecule B10 had an EC50 of 0.668 ng/mL and a Top630nm of 1.88.

A further assay has as its target T1, human IL-18R1 and IL-18RAP on IL-18 …. Description: cell-based or functional assay. The source holds these as a separate data set.
Turning to B7, a half-maximal response (EC50) required 2.3 ng/mL and the Top530nm stood at 1.05.
In turn, B11 returned an EC50 of 28.7 ng/mL and a Top530nm of 0.349.
The matching figures for B12: 19.5 ng/mL and 1.1.
On to B13, for which the EC50 is 0.67 ng/mL and 1.49 ng/mL.
In turn, B14 returned an EC50 of 6.99 ng/mL and a Top530nm of 1.18.
The matching figures for B15: 12.9 ng/mL and 1.
B16 had an EC50 of 10.9 ng/mL and a Top530nm of 1.09.
B17 showed an EC50 of 7.75 ng/mL and a Top530nm of 1.05.
